Assay results as given in doi:10.1101/2024.11.03.621760 (bioRxiv, 2024).

B1: cHALC3_919_cb3 (designed binder)
chain: MSGSEELLEELRELLERLQELLELIEQGKITPEQLREAIALLIEVLQILYEALRELAEQLQRLREELGGSGSPVKRFVREVLEEAEEAYEKGDRRQFEELLWLAEWAARDANDEELEEEIREFEKEVKGS
B2: nHALC3_919_cb3 (designed binder)
chain: MSGSPVKRFVREVLEEAEEAYEKGDRRQFEELLWLAEWAARDANDEELEEEIREFEKEVKGSGSEELLEELRELLERLQELLELIEQGKITPEQLREAIALLIEVLQILYEALRELAEQLQRLREELGGS

Columns and labels:
[1] = target: prefusion MERS-CoV EMC/2012 S ectodomain trimer (MERS-CoV-2P S) (MERS-CoV EMC/2012)
[2] = target: prefusion MERS-CoV EMC/2012 S ectodomain trimer (MERS-CoV-2P S) (MERS-CoV EMC/2012); experiment: SPR

Binder | Table S6, cHALC3 919: neutralisation IC50, EMC/2012 S VSV pseudovirus, exp 1 [1] | Table S6, cHALC3 919: neutralisation IC50, EMC/2012 S VSV pseudovirus, exp 2 [1] | Kd [2] | koff [2] | kon [2] | Table S6, nHALC3 919: neutralisation IC50, EMC/2012 S VSV pseudovirus, exp 1 [1] | Table S6, nHALC3 919: neutralisation IC50, EMC/2012 S VSV pseudovirus, exp 2 [1]
B1 | 15.3 nM | 5 nM |  |  |  |  | 
B2 |  |  | 0.11 nM | 6e-05 s⁻¹ | 560000 M⁻¹ s⁻¹ | 5.9 nM | 1.7 nM
